From PMC2897144 (Hypertension, 2009)

B1: G protein-coupled receptor kinase type 4 (enzyme, human (endogenous in RPTCs), UniProt P32298 1-578, looked up)
chain: MELENIVANSLLLKARQGGYGKKSGRSKKWKEILTLPPVSQCSELRHSIEKDYSSLCDKQPIGRRLFRQFCDTKPTLKRHIEFLDAVAEYEVADDEDRSDCGLSILDRFFNDKLAAPLPEIPPDVVTECRLGLKEENPSKKAFEECTRVAHNYLRGEPFEEYQESSYFSQFLQWKWLERQPVTKNTFRHYRVLGKGGFGEVCACQVRATGKMYACKKLQKKRIKKRKGEAMALNEKRILEKVQSRFVVSLAYAYETKDALCLVLTIMNGGDLKFHIYNLGNPGFDEQRAVFYAAELCCGLEDLQRERIVYRDLKPENILLDDRGHIRISDLGLATEIPEGQRVRGRVGTVGYMAPEVVNNEKYTFSPDWWGLGCLIYEMIQGHSPFKKYKEKVKWEEVDQRIKNDTEEYSEKFSEDAKSICRMLLTKNPSKRLGCRGEGAAGVKQHPVFKDINFRRLEANMLEPPFCPDPHAVYCKDVLDIEQFSVVKGIYLDTADEDFYARFATGCVSIPWQNEMIESGCFKDINKSESEEALPLDLDKNIHTPVSRPNRGFFYRLFRRGGCLTMVPSEKEVEPKQC
B2: caveolin-1 (natural protein, human (endogenous in RPTCs), UniProt Q03135 1-178, looked up)
chain: MSGGKYVDSEGHLYTVPIREQGNIYKPNNKAMADELSEKQVYDAHTKEIDLVNRDPKHLNDDVVKIDFEDVIAEPEGTHSFDGIWKASFTTFTVTKYWFYRLLSALFGIPMALIWGIYFAILSFLHIWAVVPCIKSFLIEIQCISRVYSIYVHTVCDPLFEAVGKIFSNVRINLQKEI

How the values were obtained:
[1] = biological target: B2; test: co-IP
[2] = biological target: B1; test: co-IP

decrease of co-immunoprecipitation in uRPTCs relative to nRPTCs [1] [%] | decrease of co-immunoprecipitation in uRPTCs relative to nRPTCs [2] [%] | Binder
58 |  | B1
 | 55.6 | B2
